Test results published in article PMC10934791 (Molecules, 2024).

B1: radioiodinated α-bungarotoxin (ligand)
chain: IVCHTTATSPISAVTCPPGENLCYRKMWCDAFCSSRGKVVELGCAATCPSKKPYEEVTCCSTDKCNPHPKQRPG

How the values were obtained:
[1] = target: recombinant Lymnaea stagnalis acetylcholine-binding protein (AChBP) produced in LEXSY (Lymnaea stagnalis); assay: radioligand binding
[2] = target: T1, recombinant L. stagnalis AChBP expressed in the insect Sf9 cells (Lymnaea stagnalis, UniProt P58154 20-229); assay: radioligand binding; conditions: both partners purified
T1 construct: also called insect cell-produced AChBP; standard specimen of insect cell-produced AChBP
T1 sequence (P58154 20-229): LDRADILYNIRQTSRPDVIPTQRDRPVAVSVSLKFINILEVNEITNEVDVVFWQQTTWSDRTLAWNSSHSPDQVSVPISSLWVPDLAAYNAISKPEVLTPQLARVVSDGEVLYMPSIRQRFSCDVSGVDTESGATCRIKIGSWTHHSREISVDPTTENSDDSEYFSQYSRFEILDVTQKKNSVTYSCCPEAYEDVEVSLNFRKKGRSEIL

Chain of recombinant Lymnaea stagnalis acetylcholine-binding protein (AChBP) produced in LEXSY (Lymnaea stagnalis) (P58154 20-229 limits assumed): as the sequence (P58154 20-229) above

Molecule	Kd [1]	Kd [2]
radioiodinated α-bungarotoxin (from UniProt P60615 22-95) (ligand)	50 pM	–
B1	–	62 ± 13 pM
